From patent US20050123978

What follows are substances tested against T1, recombinant ANX7 (human annexin VII) (UniProt P20073).
T1 sequence: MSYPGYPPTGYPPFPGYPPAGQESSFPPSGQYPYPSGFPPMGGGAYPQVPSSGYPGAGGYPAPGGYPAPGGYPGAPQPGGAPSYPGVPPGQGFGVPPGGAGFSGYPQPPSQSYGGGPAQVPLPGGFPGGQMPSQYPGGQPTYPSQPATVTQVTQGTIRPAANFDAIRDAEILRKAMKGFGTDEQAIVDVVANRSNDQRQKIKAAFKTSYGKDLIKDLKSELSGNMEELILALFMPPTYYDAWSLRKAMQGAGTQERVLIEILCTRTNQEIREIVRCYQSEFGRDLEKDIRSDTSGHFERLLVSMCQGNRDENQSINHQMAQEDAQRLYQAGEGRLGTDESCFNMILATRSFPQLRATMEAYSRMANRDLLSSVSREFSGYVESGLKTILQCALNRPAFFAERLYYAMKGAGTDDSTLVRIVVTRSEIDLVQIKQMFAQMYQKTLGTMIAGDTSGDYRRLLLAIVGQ

Row | Substance | in vitro phosphorylation of recombinant ANX7 | molar ratio of ^32[P]/ANX7 protein after a 30-minute incubation
1 | Casein kinase I | no activity was detected when recombinant ANX7 was exposed to casein kinase 1, casein kinase II, or Ca^2+/calmodulin kinase II | 
2 | cGMP-dependent protein kinase |  | PKG (molar ratio=1.0)
3 | epidermal growth factor receptor kinase |  | only five were active ... EGFR kinase (molar ratio not determined)
4 | casein Kinase II | no activity was detected when recombinant ANX7 was exposed to casein kinase 1, casein kinase II, or Ca^2+/calmodulin kinase II | 
5 | tyrosine kinase p60^src |  | p60^src (molar ratio=1.0)
6 | protein kinase C |  | PKC (molar ratio=2.0)
7 | Ca^2+/calmodulin Kinase II | no activity was detected when recombinant ANX7 was exposed to casein kinase 1, casein kinase II, or Ca^2+/calmodulin kinase II | 
8 | cAMP-dependent protein Kinase |  | PKA (molar ratio=1.0)
